From paper PMC11928938 come the findings set out here.

Common to all, as to assay: SEC; size-exclusion chromatography on Superdex 200 of purified recombinant hGlyRS; dimer and monomer forms fractionated; dimer to monomers
Test [1] concerns the target human glycyl-tRNA synthetase H418R variant (hGlyRS-H418R), recombinant (human).
For test [2], the target named is human glycyl-tRNA synthetase S211F variant (hGlyRS-S211F), recombinant (human).
Test [3] concerns the target human glycyl-tRNA synthetase, wild type (hGlyRS-WT), recombinant (human).

The term stoichiometry N denotes the number of molecules, sites or subunits per partner or assembly. “human glycyl-tRNA synthetase H418R variant (hGlyRS-H418R), recombinant (enzyme)”: in test [1], the dimer:monomer (D:M) ratio, dimer part (dimer parts against 3.0 monomer parts) stood at 7 and the stoichiometry N was 2.

For the substance “human glycyl-tRNA synthetase S211F variant (hGlyRS-S211F), recombinant (enzyme)”, in test [2], the dimer:monomer (D:M) ratio, dimer part (dimer parts against 6.2 monomer parts) turned out to be 3.8.

As for “human glycyl-tRNA synthetase, wild type (hGlyRS-WT), recombinant (enzyme)”, in test [3], the dimer:monomer (D:M) ratio, dimer part (dimer parts against 0.9 monomer parts) is 9.1 and the stoichiometry N is 2.
